Source: patent US20060067886A1, “Gastrin receptor-avid peptide conjugates” (priority 1997, published 2006)
Values joined by “and” are separate entries in the source; they are usually repeats but may differ in a detail not shown here. Equal entries are not always repeated.

What was measured:
in vivo = details: SCID, mouse, in vivo, iv, 4 uCi, total radioactivity, Avg % ID, Muscle
Protocol: (§1) In vivo pharmacokinetic studies in human tumor bearing SCID mice. […] The xenograft models were produced by bilateral flank inoculation of 5×10^6 cells (PC-3 or MDA-MB-231 cells) per site. Four to six weeks post inoculation, palpable tumors were observed. At this point, the mice were injected with 4 μCi of the complex in […] of isotonic saline via the tail vein. The mice were euthanized and tissues and organs were excised from the animals at selected times post-injection (p.i.), including 15 minutes, 30 minutes, 1 hour, 4 hours, 24 hours, 48 hours, and 72 hours p.i. Subsequently, the tissues and organs were weighed and counted in a NaI well counter and the percent injected dose (% ID) and % ID/g of each organ or tissue calculated.
(§2) The mice were injected with 4 μCi of the complex in 100 μL of isotonic saline via the tail vein. The mice were euthanized by cervical dislocation. Tissues and organs were excised from the animals following at 1 hour, 4 hour, and 24 hours post-injection (p.i.). Subsequently, the tissues and organs were weighed and counted in a NaI well counter and the percent injected dose (% ID) and % ID/g of each organ or tissue calculated.

[1] = system: PC-3 human tumor xenografts; test: Single dose radiotherapy in PC-3 tumor bearing SCID mice; format: in vivo; details: up to 20 mCi/kg single dose
Description: In vivo pre-clinical evaluation of single dose radiotherapy in human tumor bearing SCID mice. […] The xenograft model was produced by bilateral flank inoculation of 5×10^6 PC-3 cells per site. […] Baseline weights, hematology profiles, and tumor measurements were obtained immediately prior to therapy administration. Four groups of animals were utilized; a saline placebo, a 5 mCi/kg single dose, a 10 mCi/kg single dose, and a 20 mCi/kg single dose. Tumor measurements and weights were obtained twice weekly throughout the 14 weeks post injection.

[2] = system: PC-3 human tumor xenografts; test: in vivo
Protocol: as §1, §2

[3] = Stability of 177Lu conjugate (RCP, HPLC recovery); format: physicochemical; details: wide range of pH values, 24 hours
Protocol: Under identical chromatographic conditions, DOTA-8-Aoc-BBN[7-14]NH2 has a retention time of 20.5 minutes, allowing for peak purification of the radiolabeled conjugate.
To 50 μl (3.4×10^−8 mols) of DOTA-8-Aoc-BBN[7-14]NH2 in 50 μL of 0.2M Ammonium Acetate was added 150 μL of 0.4M Ammonium Acetate. To this solution was added 50 μL of 177LuCl3 (2 mCi in 0.05N HCl, Missouri University Research Reactor). The solution was allowed to incubate at […] for 1 hour, after which […] of 0.002M EDTA was added in order to scavenge uncomplexed Lutetium. Quality control of the final product was determined by reversed-phase HPLC. Peak purification of the labeled species was performed by collecting the sample from the HPLC eluant, into a solution of 1 mg/mL bovine serum albumin/0.1M Na2HPO4. All further analyses were carried out using the HPLC-purified products.
HPLC analysis of each of the new compounds was performed using an analytical C-18 reversed phase column (Phenomenex, 250×4.6 mm, 5 μm). The mobile phase consisted of a linear gradient system, with solvent A corresponding to 100% water with 0.1% trifluoroacetic acid and solvent B corresponding to 100% acetonitrile with 0.1% trifluoroacetic acid. […]

[4] = Biodistribution of radiometal-DOTA-BBN conjugates in CF1 normal mice; details: 1 hour post-injection

CSCC[C@H](NC(=O)[C@H](CC(C)C)NC(=O)[C@H](Cc1cnc[nH]1)NC(=O)CNC(=O)[C@@H](NC(=O)[C@H](C)NC(=O)[C@H](Cc1c[nH]c2ccccc12)NC(=O)[C@H](CCC(N)=O)NC(=O)CCCCCCCNC(=O)CN1CCN(CC(=O)O)CCN(CC(=O)O)CCN(CC(=O)O)CC1)C(C)C)C(N)=O [90Y-DOTA-8-Aoc-BBN[7-14]NH2, metal not drawn]
tissue uptake dose at 4 h (in vivo; 4 hrs): 0.01 ± 0.01 %ID | tissue uptake dose at 48 h (in vivo; 48 hrs): 0.01 ± 0.02 %ID | tissue uptake dose at 72 h (in vivo; 72 hrs): 0.01 ± 0.02 %ID | tolerability of radiation doses [1]: well tolerated

CSCC[C@H](NC(=O)[C@H](CC(C)C)NC(=O)[C@H](Cc1cnc[nH]1)NC(=O)CNC(=O)[C@@H](NC(=O)[C@H](C)NC(=O)[C@H](Cc1c[nH]c2ccccc12)NC(=O)[C@H](CCC(N)=O)NC(=O)CCCCCCCNC(=O)CN1CCN(CC(=O)O)CCN(CC(=O)O)CCN(CC(=O)O)CC1)C(C)C)C(N)=O [177Lu-DOTA-8-Aoc-BBN[7-14]NH2] [metal not drawn]
Avg % ID, Blood ([2]; 1 hr): 0.62±0.44 % ID | Avg % ID, Carcass ([2]; 1 hr): 6.18 ± 1.01 % ID | Avg % ID, L. Intestine ([2]; 1 hr): 3.64 ± 0.72 % ID | Avg % ID, Muscle ([2]; 1 hr): 0.01 + 0.02 % ID | Avg % ID, Pancreas ([2]; 1 hr): 9.70 ± 1.12 % ID | Avg % ID, S. Intestine ([2]; 1 hr): 8.20 ± 1.72 % ID | Avg % ID, Stomach ([2]; 1 hr): 0.61 ± 0.09 % ID | Avg % ID, Tumor ([2]; 1 hr): 1.15 ± 0.72 % ID | Avg % ID, Urine ([2]; 1 hr): 67.41±2.45 % ID | Avg % ID/gm, Heart ([2]; 1 hr): 0.15 ± 0.22 % ID/gm | Avg % ID/gm, Kidney ([2]; 1 hr): 4.70 ± 0.95 % ID/gm | Avg % ID/gm, L. Intestine ([2]; 1 hr): 3.29 ± 0.61 % ID/gm | Avg % ID/gm, Liver ([2]; 1 hr): 0.30 ± 0.05 % ID/gm | Avg % ID/gm, Lung ([2]; 1 hr): 0.18 ± 0.09 % ID/gm | Avg % ID/gm, Muscle ([2]; 1 hr): 0.11 ± 0.13 % ID/gm | Avg % ID/gm, Pancreas ([2]; 1 hr): 38.53 ± 3.61 % ID/gm | Avg % ID/gm, S. Intestine ([2]; 1 hr): 5.60 ± 0.46 % ID/gm | Avg % ID/gm, Spleen ([2]; 1 hr): 0.33 ± 0.51 % ID/gm | Avg % ID/gm, Stomach ([2]; 1 hr): 1.38 ± 0.52 % ID/gm | Avg % ID/gm, Tumor ([2]; 1 hr): 4.22±1.09 % ID/gm | Avg % ID, Blood ([2]; 4 hrs): 0.12 ± 0.11 % ID | Avg % ID, Carcass ([2]; 4 hrs): 2.52 ± 1.18 % ID | Avg % ID, Heart ([2]; 4 hrs): 0.01 + 0.02 % ID | Avg % ID, Kidney ([2]; 4 hrs): 0.61 ± 0.08 % ID | Avg % ID, L. Intestine ([2]; 4 hrs): 7.28 ± 4.23 % ID | Avg % ID, Liver ([2]; 4 hrs): 0.15 ± 0.03 % ID | Avg % ID, Lung ([2]; 4 hrs): 0.05 + 0.09 % ID | Avg % ID, Muscle ([2]; 4 hrs): 0.02 + 0.03 % ID | Avg % ID, Pancreas ([2]; 4 hrs): 5.23 ± 1.68 % ID | Avg % ID, S. Intestine ([2]; 4 hrs): 2.51 ± 0.75 % ID | Avg % ID, Spleen ([2]; 4 hrs): 0.05 ± 0.02 % ID | Avg % ID, Stomach ([2]; 4 hrs): 0.22 ± 0.06 % ID | Avg % ID, Tumor ([2]; 4 hrs): 0.78 ± 0.27 % ID | Avg % ID, Urine ([2]; 4 hrs): 79.76 ± 6.48 % ID | Avg % ID/gm, Blood ([2]; 4 hrs): 0.08 ± 0.07 % ID/gm | Avg % ID/gm, Heart ([2]; 4 hrs): 0.07 ± 0.13 % ID/gm | Avg % ID/gm, Kidney ([2]; 4 hrs): 2.18 ± 0.31 % ID/gm | Avg % ID/gm, L. Intestine ([2]; 4 hrs): 7.29 ± 3.73 % ID/gm | Avg % ID/gm, Liver ([2]; 4 hrs): 0.13 ± 0.02 % ID/gm | Avg % ID/gm, Lung ([2]; 4 hrs): 0.11 ± 0.15 % ID/gm | Avg % ID/gm, Muscle ([2]; 4 hrs): 0.15 ± 0.21 % ID/gm | Avg % ID/gm, Pancreas ([2]; 4 hrs): 22.18 ± 4.66 % ID/gm | Avg % ID/gm, S. Intestine ([2]; 4 hrs): 1.93 ± 0.96 % ID/gm | Avg % ID/gm, Spleen ([2]; 4 hrs): 0.60 ± 0.36 % ID/gm | Avg % ID/gm, Stomach ([2]; 4 hrs): 0.34 ± 0.34 % ID/gm | Avg % ID/gm, Tumor ([2]; 4 hrs): 3.03±0.91 % ID/gm | Avg % ID, Blood ([2]; 24 hrs): 0.01 + 0.02 % ID | Avg % ID, Carcass ([2]; 24 hrs): 2.08 + 3.14 % ID | Avg % ID, Kidney ([2]; 24 hrs): 0.17 ± 0.06 % ID | Avg % ID, L. Intestine ([2]; 24 hrs): 1.75 ± 0.23 % ID | Avg % ID, Muscle ([2]; 24 hrs): 0.02 + 0.03 % ID | Avg % ID, Pancreas ([2]; 24 hrs): 1.31 ± 0.45 % ID | Avg % ID, S. Intestine ([2]; 24 hrs): 0.67 ± 0.12 % ID | Avg % ID, Spleen ([2]; 24 hrs): 0.01 + 0.01 % ID | Avg % ID, Stomach ([2]; 24 hrs): 0.09 ± 0.06 % ID | Avg % ID, Tumor ([2]; 24 hrs): 0.29 ± 0.18 % ID | Avg % ID, Urine ([2]; 24 hrs): 85.9±1.4 % ID and 85.85 ± 1.39 % ID | Avg % ID/gm, Blood ([2]; 24 hrs): 0.01 ± 0.01 % ID/gm | Avg % ID/gm, Heart ([2]; 24 hrs): 0.06 ± 0.09 % ID/gm | Avg % ID/gm, Kidney ([2]; 24 hrs): 0.60 ± 0.20 % ID/gm | Avg % ID/gm, L. Intestine ([2]; 24 hrs): 1.90 ± 0.53 % ID/gm | Avg % ID/gm, Lung ([2]; 24 hrs): 0.14 ± 0.26 % ID/gm | Avg % ID/gm, Muscle ([2]; 24 hrs): 0.10 ± 0.17 % ID/gm | Avg % ID/gm, Pancreas ([2]; 24 hrs): 4.97 ± 2.28 % ID/gm | Avg % ID/gm, S. Intestine ([2]; 24 hrs): 0.48 ± 0.14 % ID/gm | Avg % ID/gm, Spleen ([2]; 24 hrs): 0.08 ± 0.10 % ID/gm | Avg % ID/gm, Stomach ([2]; 24 hrs): 0.19 ± 0.13 % ID/gm | Avg % ID/gm, Tumor ([2]; 24 hrs): 1.54±1.14 % ID/gm | stability of the conjugate (RCP) [3]: stability of the conjugate over a wide range of pH values over a time course of 24 hours | Avg % ID, Blood [4]: 0.20 ± 0.15 % ID | Avg % ID, Carcass [4]: 4.95 ± 1.41 % ID | Avg % ID, Heart [4]: 0.02 ± 0.04 % ID | Avg % ID, Kidney [4]: 1.62 ± 0.14 % ID | Avg % ID, L. Intestine [4]: 4.63 ± 0.57 % ID | Avg % ID, Liver [4]: 0.31 ± 0.05 % ID | Avg % ID, Muscle [4]: 0.02 ± 0.05 % ID | Avg % ID, Pancreas [4]: 7.01 ± 1.42 % ID | Avg % ID, S. Intestine [4]: 9.55 ± 2.37 % ID | Avg % ID, Spleen [4]: 0.16 ± 0.05 % ID | Avg % ID, Stomach [4]: 0.51 ± 0.15 % ID | Avg % ID/gm, Blood [4]: 0.14 ± 0.10 % ID/gm | Avg % ID/gm, Heart [4]: 0.19 ± 0.36 % ID/gm | Avg % ID/gm, Kidney [4]: 4.97 ± 0.71 % ID/gm | Avg % ID/gm, L. Intestine [4]: 6.17 ± 0.79 % ID/gm | Avg % ID/gm, Liver [4]: 0.23 ± 0.05 % ID/gm | Avg % ID/gm, Lung [4]: 0.20 ± 0.21 % ID/gm | Avg % ID/gm, Muscle [4]: 0.17 ± 0.39 % ID/gm | Avg % ID/gm, Pancreas [4]: 30.83 ± 1.89 % ID/gm | Avg % ID/gm, S. Intestine [4]: 6.47 ± 1.24 % ID/gm | Avg % ID/gm, Spleen [4]: 1.23 ± 0.59 % ID/gm | Avg % ID/gm, Stomach [4]: 1.41 ± 0.44 % ID/gm
